# Assay results reported in patent US20200392528A1, “IMPROVED PLANT EPSP SYNTHASES AND METHODS OF USE” (PIONEER HI-BRED INTERNATIONAL, INC., priority 2017, published 2020).
# Changes are numbered by the printed parent chain. Names may count otherwise.
# B1: Gm F3: soybean EPSPS variant from combinatorial library, SEQ ID NO: 13 (protein)
# chain: MAAAEKPSTSPEIVLEPIKDFSGTITLPGSKSLSNRILLLAALSEGTTVVDNLLYSEDIHYMLGALRTLGLRVEDDKTTKQAIVEGCGGLFPTSKESKDEINLFCGNAATAMRPLTAAVVAAGGNASYVLDGVPRMRERPIGDLVAGLKQLGADVDCFLGTNCPPVRVNGKGGLPGGKVKLSGSVSSQYLTALLMAAPLALGDVEIEIVDKLISVPYVEMTLKLMERFGVSVEHSGNWDRFLVHGGQKYKSPGNAFVEGDASSASYLLAGAAITGGTITVNGCGTSSLQGDVKFAEVLEKMGAKVTWSENSVTVSGPPRDFSGRKVLRGIDVNMNKMPDVAMTLAVVALFANGPTAIRDVASWRVKESERMIAICTELRKLGATVEEGPDYCVITPPEKLNVTAIDTYGDHRMAMAFSLAACGDVPVTIKDPGCTRKTFPDYFEVLERLTKH
# modifications: Glycine max
# B2: Gm F3-02-A7: soybean EPSPS variant, SEQ ID NO: 15 (protein)
# chain: B1 chain with V340A
# modifications: Glycine max
# B3: Gm F3-V340A: soybean EPSPS variant Gm F3 with V340A, SEQ ID NO: 14 (protein)
# chain: B1 chain with V340A
# modifications: Glycine max
# Test system: soybean EPSPS
# Assay: kcat gly: enzyme turnover under application conditions, soybean variants
# Type: biochemical
# Conditions: for kcat gly: soybean variants
# Procedure: A more straight-forward, accurate and meaningful parameter is one in which one rate measurement is performed under presumed in vivo conditions, if known. To establish a set of conditions that mimic those under which the mutated enzyme needs to perform, the concentrations of PEP and S3P were set low (30 uM, subject to the sensitivity of assay conditions) to approach the presumed intracellular concentrations (˜15 uM, the approximate values of KM for both PEP and S3P). Glyphosate is included at 1 mM. The pH is set at 7.0 and ionic strength at 100 mM KCl, also to mimic known in vivo conditions. Ethylene glycol is present at 5% (v/v) to approximate the dielectric constant of intracellular fluid. The parameter is termed “enzyme turnover under application conditions”, which is herein shortened to “kcat gly”. The conventional formatting of the expression “kcat” is not used, to avoid this term being characterized as a standard kinetic constant.
# EPSPS activity was determined by quantifying the phosphate generated from the EPSPS reaction. Release of inorganic phosphate was coupled to its reaction with 2-amino-6-mercapto-7-methylpurine ribonucleoside (MESG), catalyzed by purine nucleoside phosphorylase, according to previously described protocols. To determine the kcat gly, enzyme preparations were normalized to 0.1 mg/ml and four- to six-microliter aliquots of normalized enzyme were added to the wells of a low UV-absorbing 96-well assay plate (Greiner UV-Star). Reactions were started with the addition of 2×147 μl of reaction mixture containing 25 mM Hepes, pH 7.0, 100 mM KCl, 5% ethylene glycol, 30 μM each of PEP and S3P, 0.15 mM MESG, 1.5 U/ml purine nucleoside phosphorylase (Sigma N8264) and 1 mM glyphosate. Absorbance was monitored at 4 sec intervals for 50 sec with a Spectramax plate reader (Molecular Devices). […] Division by the enzyme concentration (0.04 to 0.1 uM, depending on activity) yields “kcat gly” in units of min^−1. […]
# A library was constructed and screened as above. […] The library was constructed, screened and evaluated by the methods described in Examples 1 and 2.
Molecule,kcat gly [s⁻¹],fitness (kcat gly) compared with Gm F3
B1,0.938,
B2,1.34,
B3,,significant fitness improvement
